Paper PMC10689493 (Nature Communications, 2023)

Experiments:
[1] = target: SARS-CoV-1 Spike protein, 2 P (SARS-CoV-1, isolate , UniProt P59594, stabilised); assay: ELISA; settings: both partners purified
[2] = target: MERS Spike protein, 2 P (MERS-CoV, isolate  (entry: …, UniProt K9N5Q8, stabilised)); assay: ELISA; settings: both partners purified

| Binder | binding result [1] | binding result [2] |
| --- | --- | --- |
| CC40.8 mAb (antibody, V domains shown, IgG; source: Expi293F, transfected, purified (Protein A)) VH: EVQLLESGGGLVQPGGSLRLSCAASGFTFSSYVMTWARQAPGKGLEWVSAISGTGYTYYADSVKGRFTVSRDNSKNTLFLQMSSLRAEDTAVYYCAITMAPVVWGQGTTVTVSS VL: SYELTQPPSVSVSPGQTARITCSGDALPKRYAYWYQQKSGQAPILVIYEDKKRPSGIPERLSGSKSGTVATLTISGAQVEDEADYYCYSTDSSGNHAVFGGGTQLTVL | binds | – |
| S2P6 mAb (antibody, V domains shown, IgG; IGHV1-46/IGKV3-20; source: Expi293F, transfected, purified (Protein A)) VH: EVQLVQSGAEVKKPGASVKVSCKASGYTFTSQYMHWVRQAPGQGLEWIGIINPSGVHTSYAQKFQGRVTLTRDTSTSTLYMELSSLRSEDTAVYYCARGSPKGAFDYWGQGTLVTVSS VL: not shown | binds | binds |
